Measured values from the nanobody polyreactivity screen of Harvey et al. (2022).

Experiment: yeast display, Sf9 membrane polyspecificity reagent, FACS + sequencing; frameworks hold sequencing errors
Outline: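 A synthetic nanobody library was expressed on Saccharomyces cerevisiae BJ5465 by galactose induction for 36–48 hours. The library was stained for 1 hour at 4 °C with 10% biotinylated, detergent-solubilized Sf9 membrane reagent and enriched with streptavidin microbeads before FACS. Low and high (top ~1%) gates were set on anti-HA fluorescence for expression and streptavidin fluorescence for reagent binding, and each polyreactivity label reflects the gate of origin.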
With “QVQLVDSGGGLVQAGGSLRLSCAASGTIILVYAMGWYRQAPGKERELVARITNGTGSTYYADSVKGRFTISRDNAKNTVYLQMNSLKPEDTAVYYCATGQGSSYRSGPRWYPNAFGYWGQVTQVTVSS” the “polyreactivity (PSR sort gate)” value was “high polyreactivity”. In the case of “QVQLVDSGGGLVQAGGSLRLSCAASGYILGRYAMGWYRQAPGKERELVAAISSSGGSTYYADSVKGRFTISRDNGKNSVYLQINSLKPEDTAFYYWNVPRFYGSYNYWGQGTQVTVSS”, the “polyreactivity (PSR sort gate)” value is reported as “high polyreactivity”. In the case of “QVQLVDSGGGLVQAGGSLRLSCAASGYTFVPYAMGWYRQAPGKERELVAAISSSGGDTYYADSVKGRFTISRDNAKTTVYLQLNSLKPEDTAVYYCNTGVYVWQYWYYGFDYWGQGTQVTVSS”, the “polyreactivity (PSR sort gate)” value is reported as “low polyreactivity”. For “QVQLVDSGGGLVQAGGSLRLSCAASGYTLDGNAMGWYRQAPGKQREFVAAITIRGGGTYYADSVKGRFTISRDNAKNTDYVQMNSLKPEDSAVYYCNADTYDPFPWGSDYWGQGTQVTVSS”, the “polyreactivity (PSR sort gate)” value was “high polyreactivity”. In the case of “QVQLVDSGGGLVQAGGSLRLSCAATGFTLPKYAMGWYRQAPGKERELVAAISSGGSTYYADSVKGRYTISRDNAKNTVYLQMNSLKPEDSAVYYCAAKYYYYRRDYWGQGTQVTLSS”, the “polyreactivity (PSR sort gate)” value is reported as “high polyreactivity”. With “QVQLVDSGGGLVQAGGSLRLSCAAYGLTFTYYDMGWYRQAPGNERELVATFSWSDSSTYADSVKGRFTISRDNAKNTVYLQMNSLKPEDTAVYYCNKVSYYTYDVDYWGQRTQVTVSS” the “polyreactivity (PSR sort gate)” value was “low polyreactivity”. In the case of “QVQLVDSGGGLVQAGGSLRLSCADSGRIFVGYAMGWYTQAPGKDRELVAAINRTGSSTYYADSVKGRFTISRDNAKTTVYLQMNSLKPEDTAVYYCNARSGNRYGPRYDYWGQGTQVTVSS”, the “polyreactivity (PSR sort gate)” value is reported as “high polyreactivity”. With “QVQLVDSGGGLVQAGGSLRLSCASSGFTISPYAMGWYRQAPGKERELVAAISSSGGSTYYADSVKGRFTISRDNAKYTVYLQMTSLKPEDTAVYYCATQGTRRPGKFYYWGQCTQVTVSS” the “polyreactivity (PSR sort gate)” value was “high polyreactivity”. For “QVQLVDSGGGLVQAGGSLRLSCASTGSIYRYAIGWNRQSPGKERELVAAINFNGGRTYYADSVKGRFTISSDNAKNTVYLQMNSLKPEDTAVYYCAAVRSSNQGGFDYWGQGTLVTVSS”, the “polyreactivity (PSR sort gate)” value was “high polyreactivity”. In the case of “QVQLVDSGGGLVQAGGSLRLSCDASGLIFFFYAMRWYRQAPGKERELVAAISDEGVSTDYADSVKGRFTISRDNAKNTVYLQMNSLKPEDTAVYYCAAKTERVYPWFSFGYWGQGTQVTVSS”, the “polyreactivity (PSR sort gate)” value is reported as “low polyreactivity”. For “QVQLVDSGGGLVQAGGSLRLSCDASGSTFKWYAMGWYRQAPGKERELVAAISWTGASTYYADSVKGRFTISRDNGKNTVYLQMNSLKPEDTAVYYCAADRTYYAMLWTGRSRYDYWGQGTQVTVSS”, the “polyreactivity (PSR sort gate)” value was “high polyreactivity”. For “QVQLVDSGGGLVQAGGSLRLSCPASGYTIVYNAMGCYRQGPGKEREFVAAITWSGTSTRYADSVKGRFTISRDKAKNTVYLQMNSLKPDDTAVYYCSARFPLVRYNYWGQGTQVTVSS”, the “polyreactivity (PSR sort gate)” value was “high polyreactivity”. For “QVQLVDSGGGLVQAGGSLRLSCSASGRIFLRYPMGCYRQSPGKERELVAVITWSGGSTNYADSVKGRFTISRDNAKNTVYLQMNSLKPEDTAVYYCAVDNTGRSWPYDYWGQGTQVTVSS”, the “polyreactivity (PSR sort gate)” value was “low polyreactivity”. In the case of “QVQLVDSGGGLVQAGGSLRLSCSASRSNFVYNAIGWYRKAPWKERELVTGISGGGGTNYADSVKGRFTISRDNEKNTVYLQMNSLKPEDTAVYYCAAEQNYIEFDYWGQGTQVTVSS”, the “polyreactivity (PSR sort gate)” value is reported as “low polyreactivity”. In the case of “QVQLVDSGGGLVQAGGSLRLSSAASGFIFYEYAMGWYRQAPGKEMELVAAITSGGSTDYADSVKGRFSSSRDNAKNTVYLQMNCMKPDDTAVYYCNADLLTGYYWYKYWGQGTQVSVSS”, the “polyreactivity (PSR sort gate)” value is reported as “low polyreactivity”. For “QVQLVDSGGGLVQAGGSLRLSSAASGRIFPRYAMGWDRQAPGKERELVATISSGGSTYYADSVKGRFTISRDNAKNTVYLQMISLKPEDTAVYYCATGRQVVRSYSEGDYWGQGTQVTVSS”, the “polyreactivity (PSR sort gate)” value was “low polyreactivity”. With “QVQLVDSGGGLVQAGGSLRLSSAASGSTFAVNAMGWYIQARGKERELVAAISDSDGSTFYADSVKGRFTISRDNAKNTVYLQMNSLKPEDTAVYYCAATVYRVFRYSYLYYYWGQGTQVTVSS” the “polyreactivity (PSR sort gate)” value was “low polyreactivity”. With “QVQLVDSGGGLVQAGGSLRLSSPASGFIIGLYAMGWYRQEPGKERELVAAISTSSGITYYADSVKGRFTISRDNAKNSVYLQMNSLKPEDTAVYYCAARGHYYDFCGQGTQVTVSS” the “polyreactivity (PSR sort gate)” value was “low polyreactivity”. With “QVQLVDSGGGLVQAGGSLRLTCAASGSIFDRYAMGWYRQAPGKERELVAAITGRGTSTYYADSVKGRFTISRDNAKNTVYLQMNSLKPEETAVYYCATPFWSRPAQDEYDYWGQGTQVTVSS” the “polyreactivity (PSR sort gate)” value was “high polyreactivity”. In the case of “QVQLVDSGGGLVQAGGSLSLSCAASGSTFTWYAMGWYIQAPGKERELVAASRWSGGNTYYADSVKGRFTISRDNAKHTVYLQMNSLKPEDPAVYYCAARLYTAADHYNDWGQGTQVTGSS”, the “polyreactivity (PSR sort gate)” value is reported as “high polyreactivity”. For “QVQLVDSGGGLVQAGVSLRLSCPASGSIFRPNAMGWYRQAPGKERELVAAINTSDDSTYYADSVKGRFTISRDNAKNTVYLQMNSLIREDTAVYYCAAEYYAYAYGDDYDYWGQGTQVTVSS”, the “polyreactivity (PSR sort gate)” value was “low polyreactivity”. In the case of “QVQLVDSGGGLVQARGSLRLTCAASGRIYNLYAMGWYRQAPGKERELVAAIRGRGTSTYYADSVKVRFTISRDKAKNTVYFQMNSLKPEDTAVYYCASEGGYGPTLQDTSRYEYWGQGTQVTVSS”, the “polyreactivity (PSR sort gate)” value is reported as “low polyreactivity”. In the case of “QVQLVDSGGGLVQASGSLRLSCAASGSIFLFYAMGGYRQAPGKERQVVAAITSGGRTYYADSVKGRFTISRDNAKNTVYLQMNSLKPEDTAVYYCNAVRFYSIGLGQDDYWGQGTQVTVSS”, the “polyreactivity (PSR sort gate)” value is reported as “low polyreactivity”. For “QVQLVDSGGGLVQGGGRLRLSCAASGFTLQSNAMGWYRQAPGKERELVAAISFRGGSTYYADSVKGRFTISRDNAKNTVYLQKNSLKPEDTAVYYCAADFYVHSAYYYGYWGQGTQVTVSS”, the “polyreactivity (PSR sort gate)” value was “low polyreactivity”. With “QVQLVDSGGGVVQAGGSLRLSCPASGRTFRGYAMGWYRQAPGKERELVAAISSGGSTYYADSVKGRFTISRDNAKNTVYLQMNSLKPEDTAVYYCAAGGPSTLDDYWGQGTQVTVSS” the “polyreactivity (PSR sort gate)” value was “low polyreactivity”. In the case of “QVQLVDSGGGVVQAGLSLRLSCAASGRTFPGYAIGWYRQAPGKEMELVASITSRGGITYYADSVKGRFTISRDNAKITVYLQLNSLKPEDSAVYYCATDFAVTKMEYWGQGSQVTVSS”, the “polyreactivity (PSR sort gate)” value is reported as “low polyreactivity”. In the case of “QVQLVDSGRGLVQAGGSLRLSCAASGHIFLYYTMAWYRQAPGKERELVAGITIGGSTIYADSVKGRFTISRDNAKNSVYLQMNSMKPEDTAVYYCNVVNYVFIYSYWEYYYWGQGTEVTVSS”, the “polyreactivity (PSR sort gate)” value is reported as “low polyreactivity”. For “QVQLVDSGRGLVQAGGSLRLSCAASGSIFDNYAMGSYRQAPGNERELVAAISGRGGSTYYADSVKGRFTISRDNAKNTVYLQMNSLKPEDTAVSYCNALVHQTYYDYDDWGHGTQVTVSS”, the “polyreactivity (PSR sort gate)” value was “high polyreactivity”. In the case of “QVQLVDSGVGLVQAGGSHRLSCAASAFTIDGYDMGWYRQAPGKERELVAAISWDGGSTYYADSVKGRFTISRDNAKNTVYLQMNSLKPEDTAVYYCAAPFPFVSEFYRYDYWGQGTQVTVST”, the “polyreactivity (PSR sort gate)” value is reported as “low polyreactivity”. In the case of “QVQLVDSGVGLVQAGGSLRLSCASSGSTFTINAMACYRHAPGKERELVAAISSGDSYYADSVKGRFTISRDNAKNTVYLQMNSLKPEDTTAVYYCAADSPGDSSKYDYWGQGTQVTVSS”, the “polyreactivity (PSR sort gate)” value is reported as “low polyreactivity”. With “QVQLVDSRGCLVQAGGSLRLSFAASGSIFGYYSMVWYIQAPGKESELVAAISYSGSRTYYADSVKGRFTISRDNAKNTVYLQKNSLKPEDTAVYYCAVLRRDGFEYWGQGTQVTVSS” the “polyreactivity (PSR sort gate)” value was “high polyreactivity”. With “QVQLVDSRGGLLQAGGSLRLSCAASGSIISRNAKGWYRQAPGKESELVAAITRSGGSTYYADSVKGRFTISRENAKNTVYLQRNRLKPEDTAVYYCATPIFSARRYTGYVKYDYWAQGTQVTVSS” the “polyreactivity (PSR sort gate)” value was “high polyreactivity”.
